“And” between values parts separate entries of the source, which are not always exact repeats. Equal entries are not always repeated.

By Kd is commonly meant the equilibrium constant for the complex coming apart. Lower therefore signals higher affinity. The term koff denotes the rate constant with which the complex falls apart. A higher koff goes with a short-lived complex.

What all share (assay): SPR
In general terms: In SPR one partner is held on a chip, and binding of the other changes the refractive index at the surface.

For test [1], the target named is T1, ALK2-Fc (UniProt Q04771 21-123).
T1 chain: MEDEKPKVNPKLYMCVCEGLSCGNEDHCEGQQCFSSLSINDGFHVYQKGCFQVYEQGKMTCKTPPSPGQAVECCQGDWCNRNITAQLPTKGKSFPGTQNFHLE

Test [2] deals with T2, ALK1 extracellular domain (ALK1 ECD) (human, UniProt P37023 22-118).
T2 sequence (P37023 22-118): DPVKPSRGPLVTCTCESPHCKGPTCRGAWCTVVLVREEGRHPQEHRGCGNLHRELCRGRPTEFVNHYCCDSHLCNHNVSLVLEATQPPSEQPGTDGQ
Test [3] addresses T2, ALK1 extracellular domain (ALK1 ECD). This is another data set of the same source.
The target of test [4] is T3, ALK1-Fc (ALK1 extracellular domain-Fc fusion protein) (UniProt P37023 22-118).
T3 sequence (P37023 22-118): as above
Test [5] deals with T3, ALK1-Fc (ALK1 extracellular domain-Fc …). The source holds these as a separate data set.

B1: BMP6-GF WT (protein)
chain: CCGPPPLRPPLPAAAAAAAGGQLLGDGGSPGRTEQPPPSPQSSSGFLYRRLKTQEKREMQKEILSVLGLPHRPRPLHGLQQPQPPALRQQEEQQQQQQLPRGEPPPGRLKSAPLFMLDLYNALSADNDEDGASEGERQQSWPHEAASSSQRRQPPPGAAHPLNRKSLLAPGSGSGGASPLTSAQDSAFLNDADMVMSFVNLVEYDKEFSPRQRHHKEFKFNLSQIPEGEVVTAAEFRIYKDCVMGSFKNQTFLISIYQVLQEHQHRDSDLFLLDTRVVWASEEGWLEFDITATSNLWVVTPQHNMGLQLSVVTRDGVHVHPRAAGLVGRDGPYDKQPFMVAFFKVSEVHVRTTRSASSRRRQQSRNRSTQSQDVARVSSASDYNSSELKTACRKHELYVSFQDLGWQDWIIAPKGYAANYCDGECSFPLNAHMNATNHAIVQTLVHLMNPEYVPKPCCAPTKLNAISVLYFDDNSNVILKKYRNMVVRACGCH
modifications: disulfide-linked GF-domain homodimer. The text gives no BMP6 construct, source or limits (named only in a figure), so the human mature chain is assumed.
On to B1, for which binding in test [1] was put at a Kd of 19.2 nM.

B2: BMP9 GF-domain (bone morphogenetic protein 9 growth factor domain) (ligand)
chain: SAGAGSHCQKTSLRVNFEDIGWDSWIIAPKEYEAYECKGGCFFPLADDVTPTKHAIVQTLVHLKFPTKVGKACCVPTKLSPISVLYKDDMGVPTLKYHYEGMSVAECGCR
In test [2], B2 registered a Kd of 0.0716 nM. In addition, the off-rate constant (koff) in test [3] came to 8.37e-05 s⁻¹; in test [4], 6.19e-05 s⁻¹.

B3: pro-BMP9 (prodomain-bound BMP9) (complex)
chain 1: KPLQSWGRGSAGGNAHSPLGVPGGGLPEHTFNLKMFLENVKVDFLRSLNLSGVPSQDKTRVEPPQYMIDLYNRYTSDKSTTPASNIVRSFSMEDAISITATEDFPFQKHILLFNISIPRHEQITRAELRLYVSCQNHVDPSHDLKGSVVIYDVLDGTDAWDSATETKTFLVSQDIQDEGWETLEVSSAVKRWVRSDSTKSKNKLEVTVESHRKGCDTLDISVPPGSRNLPFFVVFSNDHSSGTKETRLELREMISHEQESVLKKLSKDGSTEAGESSHEEDTDGHVAAGSTLARRKR
chain 2: SAGAGSHCQKTSLRVNFEDIGWDSWIIAPKEYEAYECKGGCFFPLADDVTPTKHAIVQTLVHLKFPTKVGKACCVPTKLSPISVLYKDDMGVPTLKYHYEGMSVAECGCR
Consider B3, for which the Kd in test [1] was 86.2 nM; in test [2] it was 0.0929 nM; in test [5], 0.0392 nM and 0.0612 nM. Further, the koff in test [3] was determined as 8.46e-05 s⁻¹; in test [4] it was 4.84e-05 s⁻¹.

B4: pro-BMP10 (prodomain-bound BMP10) (complex)
chain 1: SPIMNLEQSPLEEDMSLFGDVFSEQDGVDFNTLLQSMKDEFLKTLNLSDIPTQDSAKVDPPEYMLELYNKFATDRTSMPSANIIRSFKNEDLFSQPVSFNGLRKYPLLFNVSIPHHEEVIMAELRLYTLVQRDRMIYDGVDRKITIFEVLESKGDNEGERNMLVLVSGEIYGTNSEWETFDVTDAIRRWQKSGSSTHQLEVHIESKHDEAEDASSGRLEIDTSAQNKHNPLLIVFSDDQSSDKERKEELNEMISHEQLPELDNLGLDSFSSGPGEEALLQMRSNIIYDSTARIRR
chain 2: NAKGNYCKRTPLYIDFKEIGWDSWIIAPPGYEAYECRGVCNYPLAEHLTPTKHAIIQALVHLKNSQKASKACCVPTKLEPISILYLDKGVVTYKFKYEGMAVSECGCR
modifications: furin-processed; prodomain non-covalently bound to the disulfide-linked GF-domain dimer; secreted from HEK EBNA cells. Limits are from the UniProt PROPEP and CHAIN features.
For the molecule B4, the Kd is 0.017 nM in test [2]; 0.0187 nM and 0.0112 nM in test [5]. Also, the koff in test [3] was 5.63e-05 s⁻¹; in test [4] it was 3.44e-05 s⁻¹.

B5: BMP10 GF-domain (bone morphogenetic protein 10 growth factor domain) (ligand)
chain: NAKGNYCKRTPLYIDFKEIGWDSWIIAPPGYEAYECRGVCNYPLAEHLTPTKHAIIQALVHLKNSQKASKACCVPTKLEPISILYLDKGVVTYKFKYEGMAVSECGCR
In turn, B5 displayed a Kd in test [2] of 0.0557 nM. Further, the koff came to 8.5e-05 s⁻¹ in test [3] and 5.31e-05 s⁻¹ in test [4].

These data come from paper PMC7113306 (2020).
